Measured values published in publication PMC9506730.

Target: T1, human Kir2.1 channel, wild type (human), P63252
T1 chain: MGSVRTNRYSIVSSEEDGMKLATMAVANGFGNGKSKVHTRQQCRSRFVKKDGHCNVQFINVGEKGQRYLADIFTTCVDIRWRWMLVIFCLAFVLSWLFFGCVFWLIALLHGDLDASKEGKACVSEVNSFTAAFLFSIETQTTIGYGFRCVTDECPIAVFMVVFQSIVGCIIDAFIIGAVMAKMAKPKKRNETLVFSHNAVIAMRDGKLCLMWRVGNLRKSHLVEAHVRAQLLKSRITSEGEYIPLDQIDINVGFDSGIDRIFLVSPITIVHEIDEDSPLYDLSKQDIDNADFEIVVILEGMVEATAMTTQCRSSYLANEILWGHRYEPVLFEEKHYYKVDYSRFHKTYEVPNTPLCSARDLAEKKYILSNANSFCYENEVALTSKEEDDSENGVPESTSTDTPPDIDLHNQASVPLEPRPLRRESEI
Assay: SEC
Details: remark: other sources report otherwise

B1: human Kir2.1 channel, wild type, P63252 1-427 (natural protein)
chain: T1 chain
B1 showed a stoichiometry N of 4.
